assay: soluble on expression in E. coli; label from the status in PepcDB or PDB records

| Sequence | soluble on expression in E. coli |
| --- | --- |
| MGSSHHHHHHSQDPNSAAPAAEAPLSHVQQALAELAKPKDDPTRKHVCVQVAPAVRVAIAETLGLAPGATTPKQLAEGLRRLGFDEVFDTLFGADLTIMEEGSELLHRLTEHLEAHPHSDEPLPMFTSCCPGWIAMLEKSYPDLIPYVSSCKSPQMMLAAMVKSYLAEKKGIAPKDMVMVSIMPCTRKQSEADRDWFCVDADPTLRQLDHVITTVELGNIFKERGINLAELPEGEWDNPMGVGSGAGVLFGTTGGVMEAALRTAYELFTGTPLPRLSLSEVRGMDGIKETNITMVPAPGSKFEELLKHRAAARAEAAAHGTPGPLAWDGGAGFTSEDGRGGITLRVAVANGLGNAKKLITKMQAGEAKYDFVEIMACPAGCVGGGGQPRSTDKAITQKRQAALYNLDEKSTLRRSHENPSIRELYDTYLGEPLGHKAHELLHTHYVAGGVEEKDEKK | soluble |
| MGSDKIHHHHHHMFNSERLCIARERRGLTQRALAEAAGLTSKTISNYEKAGIFDAIASDSMERISAVLEYPIEFFLDRDVPSLTPEAVSFRAMTKLSAQKRDSALGAGKLAQELSAWIDGQFKLPKPNVPDSSFDGYSEPERAARTVREAWGIGELSISNIVHLLEANGIRVFSLAENCVEVDAFSFWMDEKPFVLLNTMKTPERSRFDAAHELGHLVLHKHSCNNGRQAEQDADRFASAFLMPERSILASVPRMPRLEQLILLKKNWKVSLAALVRRTFDVGLSTEWHYRQLSIELNRRGYRTGEPQGMPEREKSLILEKVFSALRTQGIKRTEILGQLRFPADEVSALTFNNRFFMEAITGDGPQSYIERKQPPQLSLVK | not soluble |
| MGSDKIHHHHHHMEMVMKNKRVAIIGAGPSGIAQLRAFESAEKQGHEIPELVCFEKQDTWGGQWNYSWRTGTDSYGEPVHSSMYRNLWSNGPKEVLEFAEYSFDEHFGKPISSYPPREVLWDYIAGRAKKSNVEKYIKFAHVVRWVSFDEATKLFTVTVENLRTGETSSDTYDNVIVGAGHFSFPNVPHFDGVETFPGQIMHAHEFRGAEAVADKDILLIGASYSAEDIGTQAYKMGARSVTFSYRSNPMGYEWPEEMTELPLVERFDGSEVHFVNGEKRKVDIVVFCTGYLHHYPFMPSELTLSSPNNLYPDTLYRGVVSEANNQLFWLGAQDQWLTFNMFDAQAWYVRDVILGRVALPSKEAQRNHMDKWLSRFEGLKSENDQIDFQCDYVEDLIDQTDYPSFDLKEVANILKGWVKSKEEDILNYRDYTYTSVMTGTTSVEHHTPWMIELDDSLERYLSEPQEDEARQVYRGKKVRDKA | not soluble |
| MIQCEECLCWQHSVCMGLLEESIPEQYICYICRDPPGQRWSAKYRYDKEWLNNGRMCGLSFFKENYSHLNAKKIVSTHHLLADVYGVTEVLHGLQLKIGILKNKHHPDLHLWACSGKRKDQDQIIAGVEKKIAQDTVNREEKKYVQNHKEPPRLPLKMEGTYITSEHSYQKPQSFGQDCKSLADPGSSDDDDVSSLEEEQEFHMRSKNSLQYSAKEHGMPEKNPAEGNTVFVYNDKKGTEDPGDSHLQWQLNLLTHIENVQNEVTSRMDLIEKEVDVLESWLDFTGELEPPDPLARLPQLKRHIKQLLIDMGKVQQIATLCSV | soluble |
| MAHLKKRNRLKKNEDFQKVFKHGTSVANRQFVLYTLDQPENDELRVGLSVSKKIGNAVMRNRIKRLIRQAFLEEKERLKEKDYIIIARKPASQLTYEETKKSLQHLFRKSSLYKKSSSK | soluble |
| MGHHHHHHSHMLKIIRAGMYTTVQDGGRHGFRQSGISHCGALDMPALRIANLLVGNDANAPALEITLGQLTVEFETDGWFALTGAGCEARLDDNAVWTGWRLPMKAGQRLTLKRPQHGMRSYLAVAGGIDVPPVMGSCSTDLKVGIGGLEGRLLKDGDRLPIGKSKRDSMEAQGVKQLLWGNRIRALPGPEYHEFDRASQDAFWRSPWQLSSQSNRMGYRLQGQILKRTTDRELLSHGLLPGVVQVPHNGQPIVLMNDAQTTGGYPRIACIIEADMYHLAQIPLGQPIHFVQCSLEEALKARQDQQRYFEQLAWRLHNEN | not soluble |
| SLKLLIEEFIPVEEISEEAKKEKLGNAKPPIFSLHYWWARKPLITARAAVLGALISKENLPMIVGNGDLKTNLLRILRIPKDINEGPRAHTQDPPAEYLKEAIIKTWGEIPTVLDPFAGGGSIPFEALRLGCNAVAVDYNPVAYLILKETLEYPKKYGMKLIL | soluble |
| MIYLKSFERNIRLINMKVVYDDVRVLKDIIQALARLVDEAVLKFKQDSVELVALDRAHISLISVNLPREMFKEYDVNDEFKFGFNTQYLMKILKVAKRKEAIEIASESPDSVIINIIGSTNREFNVRNLEVSEQEIPEINLQFDISATISSDGFKSAISEVSTVTDNVVVEGHEDRILIKAEGESEVEVEFSKDTGGLQDLEFSKESKNSYSAEYLDDVLSLTKLSDYVKISFGNQKPLQLFFNMEGGGKVTYLLAPKV | soluble |
| MAKAFEEQRRSPDLEALPFEDRIGLLVDREAAERDTRRLTTRLKIAALRQTACVEDVDLRTPRGIDRAVFAKLVEGRWIDRHENLLVTGATGLGKSWLACALGHKACRDNRSVLYHRVPRLFEALALARGDGRYARLLKSLGRAQLLILDDWGLSVLTAAERRDLLEILEDRHGRASTIVTSQLPWTPGMEPLGTPRSPTPFSIASSTTPTASSSPEKACENAAPKPSPLTANQNTDSISHRPAAALEHHHHHH | not soluble |
| MTASSQAPLKYLQAYPQALQDQVHQLIAQDRLADYLQQRYPAGHQIQSDKALYAYALALKQDHLRNAPAIKKVLFDNRLDLTHRALGLHTKISRVQGGKLKASNEIRVAALFKEAPAEFLKMIVVHELAHFRESDHNKAFYQLCEHMLPGYHQLEFDLRVYLTYNELRASSGKFLEHHHHHH | soluble |
| MEVSKANGTENNVEKFDAATQEATYLDEADVDAELEAMKKRLQEMEEEANRLKEVQEQSASEVPSSEEVDRRSVYVGNVDYGSTPEELQAHFKECGTINRVTILCDKFTGHPKGFAYIEFATEEGANNAVILNESLFRGRNLKVSIKRTNVPGISTTDRGRGRGFPRGIGFRGRGGLRGGFRGRGYHGFRGRGRMTPY | soluble |
| MSLESPQTQSEISIHQLVVGKPANDGNIPAQCELLRCSLQEGMDILLWRGHFARPETLQLHDDLGRINFSCILEGTSRFAIQGLRRHTDWELARNRHYITHTPDCRGSASYCGRFESITLSFSPETLALWVPDISAVIKNKIDSHCCCQQQRCNAETHLTAQALRHALMRMHGGFSHEQKPSTLWLQGQSLVMLSLVLDEHREDASCLSCHFNPMERQKLLRAKDLLLADLTQAPGVAELARESGLSVLKIKRGFRVLFNNSVYGLFQAERMQEARRRLANGNTSVMTVAADLGYANASHFSAAFQKQFGVTPSTFKRGEGHHHHHH | not soluble |
| MDNGDWGYMMTDPVTLNVGGHLYTTSLTTLTRYPDSMLGAMFGGDFPTARDPQGNYFIDRDGPLFRYVLNFLRTSELTLPLDFKEFDLLRKEADFYQIEPLIQCLNDPKPLYPMDTFEEVVELSSTRKLSKYSNPVAVIITQLTITTKVHSLLEGISNYFTKWNKHMMDTRDCQVSFTFGPCDYHQEVSLRVHLMEYITKQGFTIRNTRVHHMSERANENTVEHNWTFCRLARKTDD | not soluble |
| MKKVAIVGLGWLGMPLAMSLSARGWQVTGSKTTQDGVEAARMSGIDSYLLRMEPELVCDSDDLDALMDADALVITLPARRSGPGDEFYLQAVQELVDSALAHRIPRIIFTSSTSVYGDAQGTVKETTPRNPVTNSGRVLEELEDWLHNLPGTSVDILRLAGLVGPGRHPGRFFAGKTAPDGEHGVNLVHLEDVIGAITLLLQAPKGGHIYNICAPAHPARNVFYPQMARLLGLEPPQFRNSLDSGKGKIIDGSRICNELGFEYQYPDPLVMPLELEHHHHHH | not soluble |
| MRFSPIIGPSSYVSSLCHSILRGELFSTCSVGCIYCYARWYRGAHGKEKPLWESLKLIKMLGGIIREGLAITPIRVSTLSDPFQGEGKITLKFLKLALKEKVPVIINTKLIPREKHIKTIERLAEEGLVVVQVSLPTLEETKVLEPFSPSPGQRLELIERLSRAGVPTIVRVQPFVPGWIRDIHTFIEEIASAGARMIILEFLRIEKELLPLFSKLFPGEDIYKREWESYLPGTSTEEAPLLHPPLDYRLSIAREFSIKAEKEGLAFSTCKEGLFEFHTPLNVDCCGMAFFDVEYISRRPTLWDLYLEIVENGKAKGEDLWERCRREELLCRENLTPYPRWFRRGFIAHEKRLESVLRKPHIVERITPSIKYENGYFIKRKERSNSGYNSFF | not soluble |
| MRWLLVVAGLLAAGGLAQTPPPPAAQTAEQNPLRLGVQLYALGRYDAALTLFERALKENPQDPEALYWLARTQLKLGLVNPALENGKTLVARTPRYLGGYMVLSEAYVALYRQAEDRERGKGYLEQALSVLKDAERVNPRYAPLHLQRGLVYALLGERDKAEASLKQALALEDTPEIRSALAELYLSMGRLDEALAQYAKALEQAPKDLDLRVRYASALLLKGKAEEAARVLEEGHRIKPLNAEGWYTLGQAYLALGRTKEAGVALENAVALAPLRFPAAYYYLGQVYLALGDYPKAKSRLTVAVRLEPKRAEYRYSLCLANEKLGDKEGARYQCQEALKLRPDYKEAEEVLKRL | soluble |
| MTFSCEPAELRSRAKAAFIGLAVGDALGAPVEFMTTGEIKAKHGVLREIVGGGWLRLKPGQVTDDTDMSLCVARGVAKAGEWNLTAIAEEFAAWLRSKPVDVGDTCRRGIRNYMLKGLLETPFNQWDAGNGAAMRMLPTALFTMGDDNLLCRCAVEQGHLTHNHPLSDAACITLGRLVHLSVLGFSKPRLRREADRLTESHPTFSFEPYRGLATGYVVDTMQTVLHFFFRGRDFEECLVSTVNQGGDADTTGAIIGMVAGAYYGMEEIPRRWLKKMDRQVLDEIDTLSDLLISLSPALRSGNGILLPPA | not soluble |
| MNPSMKQKQEEIKENIKNSSVPRRTLKMIQPSASGSLVGRENELSAGLSKRKHRNDHLTSTTSSPGVIVPESSENKNLGGVTQESFDLMIKENPSSQYWKEVAEKRRKALYEALKENEKLHKEIEQKDNEIARLKKENKELAEVAEHVQYMAELIERLNGEPLDNFESLDNQEFDSEEETVEDSLVEDSEIGTCAEGTVSSSTDAKPCI | soluble |
| GMSAQAKNKLEALKAMTTVVADTGDIEAIKQFKPVDATTNPSLILKAAKLANYQHLIEEAIDWALQIKGNDKNSQTTLENVGDKLAVNIGCEVLTSIPGVISTEVDARLSFDTQATVAKARKLIRLYQDAGIDSDRILIKIASTWEGIQAAKILEAEGIHCNLTLLFHFAQAQACAEAGTTLISPFVGRILDWYKANSGQSEYSASEDPGVVSVTEIYNFYKSHGFKTIVMGASFRNTGEIEELAGCDRLTISPELLAQLEADTSPLEQKLFPIKETKDTPELLTEASFRWAMNNDPMAHDKLADGIRRFAADQVTLESMLSKKISQRS | soluble |
| MGHHHHHHSHMANSAGSMANSAGSLPTTTIGSFPQSREVRKYRADWKNKRITDEAYETFLKNEIARWIKIQEDIGLDVLVHGEFERNDMVEFFGEKLQGFLVTKFGWVQSYGSRAVKPPIIYGDVKWTAPLTVDETVYAQSLTDKPVKGMLTGPVTILNWSFERVDLPRKVVQDQIALAINEEVLALEAAGIKVIQVDEPALREGLPLRSEYHEQYLKDAVLSFKLATSSVRDETQIHTHMCYSQFGQIIHAIHDLDADVISIETSRSHGDLIKDFEDINYDLGIGLGVYDIHSPRIPTKEEITTAINRSLQQIDRSLFWVNPDCGLKTRKEEEVKDALTVLVNAVKA | not soluble |
| MGSDKIHHHHHHMARARTQYKCRSCGYISASYLGRCPNCGAWNQFEKESQEVRQTSTKATPSRLMASVGAKEAVKMSTVKAEKEERVLTKSSELNRVLGGGIVPGSLVLIGGDPGIGKSTLMLQIMSELAEKYKVLYVSGEESASQIKLRADRLGLGQSPMLLYPESNMEHIRDQIDDVKPDFVVIDSIQTMNEPSLDSMVGSASQVREVTAELMKIAKLDQVTVFVIGHVTKEGSIAGPKILEHMVDTVLYFEGDEHHAYRILHSVKNRFGAANEIGMFEMKTEGLAEVTNPSAVFLDERLPDSTGSAVVVSLEGTRPIL | not soluble |
